This is an account of results in patent publication US20230242586A1, “RAS INHIBITORS AND USES THEREOF” (The Regents of the University of California, priority 2020, published 2023).

Ends that are not written are not given here.

The experiment addresses biotinylated wildtype K-Ras·GppNHp (His-Avi-TEV-KRAS (wildtype)). Description: TR-FRET K-Ras(wildtype) + Raf1-RBD. The following applies: chains peptide; modification not given; biotin on the Avi tag (co-expressed BirA).

B1: KD2 (peptide)
chain: YFVNFRNFRTFRCG
modifications: also: cyclic, ring closure not given here
In the case of B1, the IC50 is more than 100 µM.
